From the supplement of paper PMC5998384 come the findings set out here.

Data set [1] has as its system HeLa Kyoto. Put plainly: solubility in G1/S (NP-40 vs SDS abundance) (log2 ratio); higher = more soluble. The note with it: cell cycle stage: G1/S.
Data set [2] concerns HeLa Kyoto. Put plainly: solubility change mitosis vs G1/S (difference of NP-40 vs SDS log2 ratios) (log2 ratio difference); higher = more soluble in mitosis.
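For solubility change mitosis vs G1/S (difference of NP-40 vs SDS log2 ratios) in this document: synchronized HeLa Kyoto cells (double thymidine block for G1/S, nocodazole release for mitosis), protein amounts in NP-40 versus SDS lysates quantified by mass spectrometry, three biological replicates.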
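For solubility in G1/S (NP-40 vs SDS abundance) in this document: HeLa Kyoto cells arrested at G1/S by double thymidine block, proteins quantified by TMT10plex mass spectrometry in mild NP-40 versus SDS extracts, three biological replicates.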

For the substance “MDNAVDGLDKASIANSDGPTAGSQTPPFKRKGKLSTIGKIFKPWKWRKKKTSDKFRETSAVLERKISTRQSREELIRRGVLKELPDQDGDVTVNFENSNGHMIPIGEESTREENVVKSEEGNGSVSEKTPPLEEQAEDKKENTENHSETPAAPALPPSAPPKPRPKPKPKKSPVPPKGATAGASHKGDEVPPIKKNTKAPGKQAPVPPPKPASRNTTREAAGSSHSKKTTGSKASASPSTSSTSSRPKASKETVSSKAGTVGTTKGKRKTDKQPITSHLSSDTTTSGTSDLKGEPAETRVESFKLEQTVPGAEEQNTGKFKSMVPPPPVAPAPSPLAPPLPLEDQCITASDTPVVLVSVGADLPVSALDPSQLLWAEEPTNRTTLYSGTGLSVNRENAKCFTTKEELGKTVPQLLTPGLMGESSESFSASEDEGHREYQANDSDSDGPILYTDDEDEDEDEDGSGESALASKIRRRDTLAIKLGNRPSKKELEDKNILQRTSEEERQEIRQQIGTKLVRRLSQRPTTEELEQRNILKQKNEEEEQEAKMELKRRLSRKLSLRPTVAELQARRILRFNEYVEVTDSPDYDRRADKPWARLTPADKAAIRKELNEFKSTEMEVHEESRQFTRFHRP [PHACTR2]”, in the data set on HeLa Kyoto [1], the “solubility in G1/S (log2)” value came to 0.45. In addition, the “solubility change mitosis (log2)” value in the data set on HeLa Kyoto [2] is -0.286.

“MPLGLKPTCSVCKTTSSSMWKKGAQGEILCHHCTGRGGAGSGGAGSGAAGGTGGSGGGGFGAATFASTSATPPQSNGGGGGKQSKQEIHRRSARLRNTKYKSAPAAEKKVSTKGKGRRHIFKLKNPIKAPESVSTIITAESIFYKGVYYQIGDVVSVIDEQDGKPYYAQIRGFIQDQYCEKSAALTWLIPTLSSPRDQFDPASYIIGPEEDLPRKMEYLEFVCHAPSEYFKSRSSPFPTVPTRPEKGYIWTHVGPTPAITIKESVANHL [GATAD1]”: the “solubility in G1/S (log2)” value with HeLa Kyoto [1] was -0.0455. The “solubility change mitosis (log2)” value in the data set on HeLa Kyoto [2] stood at 0.25.

With “MVPAAGRRPPRVMRLLGWWQVLLWVLGLPVRGVEVAEESGRLWSEEQPAHPLQVGAVYLGEEELLHDPMGQDRAAEEANAVLGLDTQGDHMVMLSVIPGEAEDKVSSEPSGVTCGAGGAEDSRCNVRESLFSLDGAGAHFPDREEEYYTEPEVAESDAAPTEDSNNTESLKSPKVNCEERNITGLENFTLKILNMSQDLMDFLNPNGSDCTLVLFYTPWCRFSASLAPHFNSLPRAFPALHFLALDASQHSSLSTRFGTVAVPNILLFQGAKPMARFNHTDRTLETLKIFIFNQTGIEAKKNVVVTQADQIGPLPSTLIKSVDWLLVFSLFFLISFIMYATIRTESIRWLIPGQEQEHVE [TXNDC15]”, the “solubility in G1/S (log2)” value in the data set with HeLa Kyoto [1] was determined as 0.719. For the same substance, the “solubility change mitosis (log2)” value in the data set with HeLa Kyoto [2] is -0.0906.

For “MKTSPRRPLILKRRRLPLPVQNAPSETSEEEPKRSPAQQESNQAEASKEVAESNSCKFPAGIKIINHPTMPNTQVVAIPNNANIHSIITALTAKGKESGSSGPNKFILISCGGAPTQPPGLRPQTQTSYDAKRTEVTLETLGPKPAARDVNLPRPPGALCEQKRETCADGEAAGCTINNSLSNIQWLRKMSSDGLGSRSIKQEMEEKENCHLEQRQVKVEEPSRPSASWQNSVSERPPYSYMAMIQFAINSTERKRMTLKDIYTWIEDHFPYFKHIAKPGWKNSIRHNLSLHDMFVRETSANGKVSFWTIHPSANRYLTLDQVFKPLDPGSPQLPEHLESQQKRPNPELRRNMTIKTELPLGARRKMKPLLPRVSSYLVPIQFPVNQSLVLQPSVKVPLPLAASLMSSELARHSKRVRIAPKVLLAEEGIAPLSSAGPGKEEKLLFGEGFSPLLPVQTIKEEEIQPGEEMPHLARPIKVESPPLEEWPSPAPSFKEESSHSWEDSSQSPTPRPKKSYSGLRSPTRCVSEMLVIQHRERRERSRSRRKQHLLPPCVDEPELLFSEGPSTSRWAAELPFPADSSDPASQLSYSQEVGGPFKTPIKETLPISSTPSKSVLPRTPESWRLTPPAKVGGLDFSPVQTSQGASDPLPDPLGLMDLSTTPLQSAPPLESPQRLLSSEPLDLISVPFGNSSPSDIDVPKPGSPEPQVSGLAANRSLTEGLVLDTMNDSLSKILLDISFPGLDEDPLGPDNINWSQFIPELQ [FOXM1]”, the “solubility in G1/S (log2)” value in the data set with HeLa Kyoto [1] is 0.114. In addition, the “solubility change mitosis (log2)” value in the data set with HeLa Kyoto [2] is -0.0969.

For “MFSAGAESLLHQAREIQDEELKKFCSRICKLLQAEDLGPDTLDSLQRLFLIISATKYSRRLEKTCVDLLQATLGLPACPEQLQVLCAAILREMSPSDSLSLAWDHTQNSRQLSLVASVLLAQGDRNEEVRAVGQGVLRALESRQPEGPSLRHLLPVMAKVVVLSPGTLQEDQATLLSKRLVDWLRYASLQQGLPHSGGFFSTPRARQPGPVTEVDGAVATDFFTVLSSGHRFTDDQWLNVQAFSMLRAWLLHSGPEGPGTLDTDDRSEQEGSTLSVISATSSAGRLLPPRERLREVAFEYCQRLIEQSNRRALRKGDSDLQKACLVEAVLVLDVLCRQDPSFLYRSLSCLKALHGRVRGDPASVRVLLPLAHFFLSHGEAAAVDSEAVYQHLFTRIPVEQFHSPMLAFEFIQFCRDNLHLFSGHLSTLRLSFPNLFKFLAWNSPPLTSEFVALLPALVDAGTALEMLHALLDLPCLTAVLDLQLRSAPAASERPLWDTSLRAPSCLEAFRDPQFQGLFQYLLRPKASGATERLAPLHQLLQPMAGCARVAQCAQAVPTLLQAFFSAVTQVADGSLINQLALLLLGRSDSLYPAPGYAAGVHSVLSSQFLALCTLKPSLVVELARDLLEFLGSVNGLCSRASLVTSVVWAIGEYLSVTYDRRCTVEQINKFFEALEALLFEVTQCRPSAALPRCPPQVVTVLMTTLTKLASRSQDLIPRASLLLSKMRTLAHSPATSSTHSEEGAEAIRTRATELLTLLKMPSVAQFVLTPSTEVCSPRYHRDANTALPLALRTVSRLVEREAGLMPG [AP5Z1]”, the “solubility in G1/S (log2)” value with HeLa Kyoto [1] turned out to be 0.134. For the same substance, the “solubility change mitosis (log2)” value with HeLa Kyoto [2] is -0.0926.

Regarding “MSEESDSLRTSPSVASLSENELPPPPEPPGYVCSLTEDLVTKAREELQEKPEWRLRDVQALRDMVRKEYPNLSTSLDDAFLLRFLRARKFDYDRALQLLVNYHSCRRSWPEVFNNLKPSALKDVLASGFLTVLPHTDPRGCHVVCIRPDRWIPSNYPITENIRAIYLTLEKLIQSEETQVNGIVILADYKGVSLSKASHFGPFIAKKVIGILQDGFPIRIKAVHVVNEPRIFKGIFAIIKPFLKEKIANRFFLHGSDLNSLHTNLPRSILPKEYGGTAGELDTATWNAVLLASEDDFVKEFCQPVPACDSILGQTLLPEGLTSDAQCDDSLRAVKSQLYSCY [TTPAL]”, the “solubility in G1/S (log2)” value in the data set with HeLa Kyoto [1] came to 0.206. Further, the “solubility change mitosis (log2)” value in the data set on HeLa Kyoto [2] was -0.0202.

“MAREPRKNAALDAQSAEDQTGLLTVKVEKEEASALTAEVRAPCSPARGPERSRQRFRGFRYPEAAGPREALSRLRELCGQWLQPEMHSKEQILELLVLEQFLTILPGNLQSWVREQHPESGEEVVVLLEYLERQLDEPAPQVPVGDQGQELLCCKMALLTQTQGSQSSQCQPMKALFKHESLGSQPLHDRVLQVPGLAQGGCCREDAMVASRLTPGSQGLLKMEDVALTLTPGWTQLDSSQVNLYRDEKQENHSSLVSLGGEIQTKSRDLPPVKKLPEKEHGKICHLREDIAQIPTHAEAGEQEGRLQRKQKNAIGSRRHYCHECGKSFAQSSGLTKHRRIHTGEKPYECEDCGKTFIGSSALVIHQRVHTGEKPYECEECGKVFSHSSNLIKHQRTHTGEKPYECDDCGKTFSQSCSLLEHHKIHTGEKPYQCNMCGKAFRRNSHLLRHQRIHGDKNVQNPEHGESWESQGRTESQWENTEAPVSYKCNECERSFTRNRSLIEHQKIHTGEKPYQCDTCGKGFTRTSYLVQHQRSHVGKKTLSQ [ZKSCAN4]”: the “solubility in G1/S (log2)” value in the data set on HeLa Kyoto [1] was -0.299. Further, the “solubility change mitosis (log2)” value with HeLa Kyoto [2] stood at 0.361.

Consider “MGALARALLLPLLAQWLLRAAPELAPAPFTLPLRVAAATNRVVAPTPGPGTPAERHADGLALALEPALASPAGAANFLAMVDNLQGDSGRGYYLEMLIGTPPQKLQILVDTGSSNFAVAGTPHSYIDTYFDTERSSTYRSKGFDVTVKYTQGSWTGFVGEDLVTIPKGFNTSFLVNIATIFESENFFLPGIKWNGILGLAYATLAKPSSSLETFFDSLVTQANIPNVFSMQMCGAGLPVAGSGTNGGSLVLGGIEPSLYKGDIWYTPIKEEWYYQIEILKLEIGGQSLNLDCREYNADKAIVDSGTTLLRLPQKVFDAVVEAVARASLIPEFSDGFWTGSQLACWTNSETPWSYFPKISIYLRDENSSRSFRITILPQLYIQPMMGAGLNYECYRFGISPSTNALVIGATVMEGFYVIFDRAQKRVGFAASPCAEIAGAAVSEISGPFSTEDVASNCVPAQSLSEPILWIVSYALMSVCGAILLVLIVLLLLPFRCQRRPRDPEVVNDESSLVRHRWK [BACE2]”, for which the “solubility in G1/S (log2)” value in the data set on HeLa Kyoto [1] was found to be 0.0932. Further, in the data set with HeLa Kyoto [2], the “solubility change mitosis (log2)” value was found to be 0.0177.

As to SMG6, the “solubility in G1/S (log2)” value in the data set with HeLa Kyoto [1] is -0.859. Moreover, the “solubility change mitosis (log2)” value in the data set with HeLa Kyoto [2] is 0.113.

“MLRTAMGLRSWLAAPWGALPPRPPLLLLLLLLLLLQPPPPTWALSPRISLPLGSEERPFLRFEAEHISNYTALLLSRDGRTLYVGAREALFALSSNLSFLPGGEYQELLWGADAEKKQQCSFKGKDPQRDCQNYIKILLPLSGSHLFTCGTAAFSPMCTYINMENFTLARDEKGNVLLEDGKGRCPFDPNFKSTALVVDGELYTGTVSSFQGNDPAISRSQSLRPTKTESSLNWLQDPAFVASAYIPESLGSLQGDDDKIYFFFSETGQEFEFFENTIVSRIARICKGDEGGERVLQQRWTSFLKAQLLCSRPDDGFPFNVLQDVFTLSPSPQDWRDTLFYGVFTSQWHRGTTEGSAVCVFTMKDVQRVFSGLYKEVNRETQQWYTVTHPVPTPRPGACITNSARERKINSSLQLPDRVLNFLKDHFLMDGQVRSRMLLLQPQARYQRVAVHRVPGLHHTYDVLFLGTGDGRLHKAVSVGPRVHIIEELQIFSSGQPVQNLLLDTHRGLLYAASHSGVVQVPMANCSLYRSCGDCLLARDPYCAWSGSSCKHVSLYQPQLATRPWIQDIEGASAKDLCSASSVVSPSFVPTGEKPCEQVQFQPNTVNTLACPLLSNLATRLWLRNGAPVNASASCHVLPTGDLLLVGTQQLGEFQCWSLEEGFQQLVASYCPEVVEDGVADQTDEGGSVPVIISTSRVSAPAGGKASWGADRSYWKEFLVMCTLFVLAVLLPVLFLLYRHRNSMKVFLKQGECASVHPKTCPVVLPPETRPLNGLGPPSTPLDHRGYQSLSDSPPGSRVFTESEKRPLSIQDSFVEVSPVCPRPRVRLGSEIRDSVV [SEMA4B]”: in the data set with HeLa Kyoto [1], the “solubility in G1/S (log2)” value stood at 0.234. Moreover, the “solubility change mitosis (log2)” value in the data set on HeLa Kyoto [2] was -0.0944.

For “MAEPGEGLPEEVLALIFRHLSLRDRAAAARVCRAWAAAATCSAVWHDTKISCECELEGMLPPYLSACLDHIHNLRLEFEPSRKPSRRAAIELLMVLAGRAPGLRGLRLECRGEKPLFDAGRDVLEAVHAVCGAASQLRHLDLRRLSFTLDDALVLQAARSCPELHSLFLDNSTLVGSVGPGSVLELLEACPRLRALGLHLASLSHAILEALAAPDRAPFALLALRCACPEDARASPLPNEAWVALRRRHPGLAVELELEPALPAESVTRVLQPAVPVAALRLNLSGDTVGPVRFAAHHYAATLCALEVRAAASAELNAALEELAARCAALREVHCFCVVSHSVLDAFRAHCPRLRTYTLKLTREPHPWRPTLVA [FBXL8]”, the “solubility in G1/S (log2)” value with HeLa Kyoto [1] was -0.196. In addition, the “solubility change mitosis (log2)” value in the data set on HeLa Kyoto [2] is -0.0843.
